Legend:
[1] = molecular target: T1, recombinant human GPA ectodomain (human, UniProt P02724 20-91); test: ELISA, rec hGPA ectodomain
T1 construct: also called recombinant hGPA ECD; recGPA
T1 sequence: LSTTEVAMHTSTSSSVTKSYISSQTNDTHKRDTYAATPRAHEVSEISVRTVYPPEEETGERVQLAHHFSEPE

[2] = molecular target: T2, purified human glycophorin A protein (Sigma, cat # G5017) (human, UniProt P02724 20-150); test: ELISA, native hGPA
T2 construct: mature; also called Sigma hGPA; Sigma GPA
T2 sequence (looked up): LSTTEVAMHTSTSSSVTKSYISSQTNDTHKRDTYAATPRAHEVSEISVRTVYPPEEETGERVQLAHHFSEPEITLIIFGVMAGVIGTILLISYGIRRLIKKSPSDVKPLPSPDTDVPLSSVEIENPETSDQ

[3] = molecular target: T3, human glycophorin A in the red blood cell membrane (human, UniProt P02724 20-150); test: SPR (Biacore), single cycle kinetics, human RBC membranes on L1 sensor, Fab flowed over
T3 construct: whole, on cells; used for intact RBC, isolated RBC membranes and transfected cells; the assay field tells which; also called GPA; hGPA
T3 sequence (looked up): T2 sequence (looked up)
Description: Kinetic analysis of the antibody binding to human red blood cell membranes was also performed using surface plasmon resonance (SPR) using a Biacore instrument. In this assay membranes prepared from human red blood cells were attached to a L1 sensor matrix and antibodies were flowed over the RBC membranes.

[4] = molecular target: T3, human glycophorin A in the red blood …; test: ELISA, human RBC membranes;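 note: antibodies bound to isolated human red blood cell membrane ghosts coated on 96-well plates, tested 1.5 h at room temperature, bound antibody quantified with a detection antibody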
Description: In order to evaluate binding of antibodies to GPA in the native context of the red blood cell membrane we made use of isolated red blood cell membranes, also called red blood cells ghosts. These membranes are prepared by first isolating red blood cells from citrated whole blood. Citrated whole blood is layered on to Ficol and centrifuged at low speed for 20 minutes to pellet the red blood cells. The supernatant containing plasma and other blood cells is discarded and the red blood cell pellet is subsequently washed 3 times in 10 cell volumes of phosphate buffered saline (PBS). A 10 ml pellet of purified red blood cells is resuspended in 30 ml of cold low osmorality 20 mM phosphate buffer (pH7.4) and incubated for 30 mins to break open the RBC. After Centrifugation at 10,000 rpm for 30 min at 5° C. the hemoglobin containing supernatant is discarded. To the membrane pellet another 30 ml of 20 mM phosphate buffer is added and the sample centrifuged again at 10,000 rpm for 30 min at 5° C. to pellet the membrane fraction. This wash and centrifugation step is repeated another 4 times. The red blood cell membranes are then resuspended in 20 mL of PBS to achieve an equivalent of approximately 2.5E9 cells/mL and stored frozen at −20° C. Binding of antibodies to RBC ghost can be measured by ELISA in which the RBC ghost suspension (5×10⁶ in 100 ul PBS) was added to each well of flat bottom 96-well ELISA microtiter plates (2HB, Immunolon) and the plates incubated overnight at 4° C. The plates were blocked with Starting blocking buffer (Thermo Fisher) for 2 hours at room temperature (RT). Antibodies or other test molecules were added to each well and incubated for 1.5 hours at RT. After 4 washes 100 ul of an appropriate detection antibody was added to each well and incubated for 1 hour at RT. After 4 washes the detection antibody was measured using appropriate detection reagents.

[5] = molecular target: T4, human glycophorin A on human red blood cells (human, UniProt P02724 20-150); test: partition to human RBC, vWF deficient plasma, 1 min
T4 construct: whole, on cells; also called human GPA; huGPA
T4 sequence (looked up): T2 sequence (looked up)

[6] = molecular target: T4, human glycophorin A on human red blood …; test: partition to human RBC, vWF deficient plasma, 120 min
[7] = molecular target: T4, human glycophorin A on human red blood …; test: partition to human RBC, vWF deficient plasma, 60 min
[8] = molecular target: T4, human glycophorin A on human red blood …; test: partition to human RBC, vWF deficient plasma, 30 min
[9] = molecular target: T4, human glycophorin A on human red blood …; test: partition to human RBC, vWF deficient plasma, 15 min
[10] = molecular target: T4, human glycophorin A on human red blood …; test: partition to human RBC, vWF deficient plasma, 5 min
[11] = molecular target: T5, Cynomolgus monkey glycophorin A on Cynomolgus monkey red blood cells (Cynomolgus monkey); test: partition to Cyno RBC, human HemA plasma, 120 min;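 note: FVIII fusion spiked at 1 IU/mL into RBC suspension at whole-blood density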
T5 construct: whole, on cells; also called Cyno GPA; Cyno RBC

[12] = molecular target: T6, glycophorin A peptide GP5 (human, biotin at the N-terminus); test: Octet, GP5 peptide on the probe, fusion protein in solution, 1:1 fit
T6 construct: Residues 42 to 61 of the human glycophorin A extracellular domain
T6 peptide: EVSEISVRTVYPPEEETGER

B1: TPP-5350 (Fab, V domains shown)
VH: EVQLVQSGAEVKKPGASVKVSCKASGYTFTTYTIHWVRQAPGQGLEWIGYINPSSDYTRYNPKFKDRVTLTTDKSTSTAYMELRSLRSDDTAVYYCQTGTRDYWGQGTTVTVSS
VL: DIQLTQSPSFLSASVGDRVTITCSAASSVSYIYWFQQKPGKAPKLLIYSTSTLQSGVPSRFSGSGSGTEYTLTISSLQPEDFATYYCHQRNSFPFTFGQGTKLEIKR
notes: also called VL: (P54Q)
For B1, the “binding by ELISA relative to parental” value [1] was 1.7, the “binding by ELISA relative to parental” value [2] was 1.45 and the Kd [3] was 34 nM. The koff [3] was 0.021 s⁻¹, the kon [3] was 610000 M⁻¹ s⁻¹ and the “binding by ELISA relative to parental” value [4] was 1.64.

B2: TPP-9161 FVIII-scFv fusion protein (other)
chain: ATRRYYLGAVELSWDYMQSDLGELPVDARFPPRVPKSFPFNTSVVYKKTLFVEFTDHLFNIAKPRPPWMGLLGPTIQAEVYDTVVITLKNMASHPVSLHAVGVSYWKASEGAEYDDQTSQREKEDDKVFPGGSHTYVWQVLKENGPMASDPLCLTYSYLSHVDLVKDLNSGLIGALLVCREGSLAKEKTQTLHKFILLFAVFDEGKSWHSETKNSLMQDRDAASARAWPKMHTVNGYVNRSLPGLIGCHRKSVYWHVIGMGTTPEVHSIFLEGHTFLVRNHRQASLEISPITFLTAQTLLMDLGQFLLFCHISSHQHDGMEAYVKVDSCPEEPQLRMKNNEEAEDYDDDLTDSEMDVVRFDDDNSPSFIQIRSVAKKHPKTWVHYIAAEEEDWDYAPLVLAPDDRSYKSQYLNNGPQRIGRKYKKVRFMAYTDETFKTREAIQHESGILGPLLYGEVGDTLLIIFKNQASRPYNIYPHGITDVRPLYSRRLPKGVKHLKDFPILPGEIFKYKWTVTVEDGPTKSDPRCLTRYYSSFVNMERDLASGLIGPLLICYKESVDQRGNQIMSDKRNVILFSVFDENRSWYLTENIQRFLPNPAGVQLEDPEFQASNIMHSINGYVFDSLQLSVCLHEVAYWYILSIGAQTDFLSVFFSGYTFKHKMVYEDTLTLFPFSGETVFMSMENPGLWILGCHNSDFRNRGMTALLKVSSCDKNTGDYYEDSYEDISAYLLSKNNAIEPRSFSQNGGGGSTGGTGGSSGGGTGSGGGGTGGSGGTDIQLTQSPSFLSASVGDRVTITCRASSSVRYIYWFQQKPGKAPKLLIYATSFRQSGVPSRFSGSGSGTEYTLTISSLQPEDFATYYCHQRNSFPYTFGQGTKLEIKGGGGSGGGGSGGGGSGGGGSEVQLVQSGAEVKKPGASVKVSCKASGYTFTTYAIHWVRQAPGQGLEWMGYINPSSGYTRYNPKFKGRVTMTRDKSTSTAYMELRSLRSDDTAVYYCWTGTRDYWGQGTTVTVSSGGGGSQNPPVLKRHQREITDENQSPRSFQKKTRHYFIAAVERLWDYGMSSSPHVLRNRAQSGSVPQFKKVVFQEFTDGSFTQPLYRGELNEHLGLLGPYIRAEVEDNIMVTFRNQASRPYSFYSSLISYEEDQRQGAEPRKNFVKPNETKTYFWKVQHHMAPTKDEFDCKAWAYFSDVDLEKDVHSGLIGPLLVCHTNTLNPAHGRQVTVQEFALFFTIFDETKSWYFTENMERNCRAPCNIQMEDPTFKENYRFHAINGYIMDTLPGLVMAQDQRIRWYLLSMGSNENIHSIHFSGHVFTVRKKEEYKMALYNLYPGVFETVEMLPSKAGIWRVECLIGEHLHAGMSTLFLVYSNKCQTPLGMASGHIRDFQITASGQYGQWAPKLARLHYSGSINAWSTKEPFSWIKVDLLAPMIIHGIKTQGARQKFSSLYISQFIIMYSLDGKKWQTYRGNSTGTLMVFFGNVDSSGIKHNIFNPPIIARYIRLHPTHYSIRSTLRMELMGCDLNSCSMPLGMESKAISDAQITASSYKTNMFATWSPSKARLHLQGRSNAWRPQVNNPKEWLQVDFQKTMKVTGVTTQGVKSLLTSMYVKEFLISSSQDGHQWTLFFQNGKVKVFQGNQDSFTPVVNSLDPPLLTRYLRIHPQSWVHQIALRMEVLGCEAQDLY
notes: also called PPB 7644
With B2 the “percentage bound to human RBC” value [5] was 51.4%, the “percentage bound to human RBC” value [6] was 84.2% and the “percentage bound to human RBC” value [7] was 86.2%. For the same binder, the “percentage bound to human RBC” value [8] was 85.9%, the “percentage bound to human RBC” value [9] was 82.9% and the “percentage bound to human RBC” value [10] was 78.4%.

B3: TPP-9423 FVIII-scFv fusion protein (other)
chain: DIQLTQSPSFLSASVGDRVTITCRASSSVRYIYWFQQKPGKAPKLLIYATSFRQSGVPSRFSGSGSGTEYTLTISSLQPEDFATYYCHQRNSFPYTFGQGTKLEIKGGGGSGGGGSGGGGSGGGGSEVQLVQSGAEVKKPGASVKVSCKASGYTFTTYAIHWVRQAPGQGLEWMGYINPSSGYTRYNPKFKGRVTMTRDKSTSTAYMELRSLRSDDTAVYYCWTGTRDYWGQGTTVTVSSGGGSGGGGSGLVPRGSGGGSGGGGSGATRRYYLGAVELSWDYMQSDLGELPVDARFPPRVPKSFPFNTSVVYKKTLFVEFTDHLFNIAKPRPPWMGLLGPTIQAEVYDTVVITLKNMASHPVSLHAVGVSYWKASEGAEYDDQTSQREKEDDKVFPGGSHTYVWQVLKENGPMASDPLCLTYSYLSHVDLVKDLNSGLIGALLVCREGSLAKEKTQTLHKFILLFAVFDEGKSWHSETKNSLMQDRDAASARAWPKMHTVNGYVNRSLPGLIGCHRKSVYWHVIGMGTTPEVHSIFLEGHTFLVRNHRQASLEISPITFLTAQTLLMDLGQFLLFCHISSHQHDGMEAYVKVDSCPEEPQLRMKNNEEAEDYDDDLTDSEMDVVRFDDDNSPSFIQIRSVAKKHPKTWVHYIAAEEEDWDYAPLVLAPDDRSYKSQYLNNGPQRIGRKYKKVRFMAYTDETFKTREAIQHESGILGPLLYGEVGDTLLIIFKNQASRPYNIYPHGITDVRPLYSRRLPKGVKHLKDFPILPGEIFKYKWTVTVEDGPTKSDPRCLTRYYSSFVNMERDLASGLIGPLLICYKESVDQRGNQIMSDKRNVILFSVFDENRSWYLTENIQRFLPNPAGVQLEDPEFQASNIMHSINGYVFDSLQLSVCLHEVAYWYILSIGAQTDFLSVFFSGYTFKHKMVYEDTLTLFPFSGETVFMSMENPGLWILGCHNSDFRNRGMTALLKVSSCDKNTGDYYEDSYEDISAYLLSKNNAIEPRSFSQNDENQSPRSFQKKTRHYFIAAVERLWDYGMSSSPHVLRNRAQSGSVPQFKKVVFQEFTDGSFTQPLYRGELNEHLGLLGPYIRAEVEDNIMVTFRNQASRPYSFYSSLISYEEDQRQGAEPRKNFVKPNETKTYFWKVQHHMAPTKDEFDCKAWAYFSDVDLEKDVHSGLIGPLLVCHTNTLNPAHGRQVTVQEFALFFTIFDETKSWYFTENMERNCRAPCNIQMEDPTFKENYRFHAINGYIMDTLPGLVMAQDQRIRWYLLSMGSNENIHSIHFSGHVFTVRKKEEYKMALYNLYPGVFETVEMLPSKAGIWRVECLIGEHLHAGMSTLFLVYSNKCQTPLGMASGHIRDFQITASGQYGQWAPKLARLHYSGSINAWSTKEPFSWIKVDLLAPMIIHGIKTQGARQKFSSLYISQFIIMYSLDGKKWQTYRGNSTGTLMVFFGNVDSSGIKHNIFNPPIIARYIRLHPTHYSIRSTLRMELMGCDLNSCSMPLGMESKAISDAQITASSYKTNMFATWSPSKARLHLQGRSNAWRPQVNNPKEWLQVDFQKTMKVTGVTTQGVKSLLTSMYVKEFLISSSQDGHQWTLFFQNGKVKVFQGNQDSFTPVVNSLDPPLLTRYLRIHPQSWVHQIALRMEVLGCEAQDLY
notes: also called 9423 (F2196K)
For B3, the “% bound to Cyno RBC” value [11] was 62.8%, the “percentage bound to human RBC” value [5] was 44.1% and the “percentage bound to human RBC” value [6] was 92.3%. The “percentage bound to human RBC” value [7] was 80.3%, the “percentage bound to human RBC” value [8] was 91.2% and the “percentage bound to human RBC” value [9] was 89.9%. The Kd [12] was 1.27 nM, the koff [12] was 0.00066 s⁻¹ and the kon [12] was 520000 M⁻¹ s⁻¹. For the same binder, the “percentage bound to human RBC” value [10] was 87.4%.
